The values that follow come from PMC6065357 (2018).

Usually Kd stands for the equilibrium constant for the complex coming apart. Read a low Kd as tighter binding.

The target in the experiment is T1, pro-brain-derived neurotrophic factor (proBDNF, residues 19-249, furin sites changed to AA) (UniProt P21237 19-249).
T1 chain: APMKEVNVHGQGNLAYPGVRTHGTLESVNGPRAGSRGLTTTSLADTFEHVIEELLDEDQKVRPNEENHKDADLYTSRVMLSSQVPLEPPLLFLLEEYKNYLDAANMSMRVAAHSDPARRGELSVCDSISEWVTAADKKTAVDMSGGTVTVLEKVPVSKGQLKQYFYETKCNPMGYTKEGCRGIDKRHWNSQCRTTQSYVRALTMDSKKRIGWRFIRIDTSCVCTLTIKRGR
Briefly: SPR; second site of two-site fit, possibly sSorCS2 oligomerization. In general terms: SPR reads the build-up and loss of mass on a sensor chip optically.

B1: mouse SorCS2 mature extracellular segment (sSorCS2, residues 117-1072) (receptor)
chain: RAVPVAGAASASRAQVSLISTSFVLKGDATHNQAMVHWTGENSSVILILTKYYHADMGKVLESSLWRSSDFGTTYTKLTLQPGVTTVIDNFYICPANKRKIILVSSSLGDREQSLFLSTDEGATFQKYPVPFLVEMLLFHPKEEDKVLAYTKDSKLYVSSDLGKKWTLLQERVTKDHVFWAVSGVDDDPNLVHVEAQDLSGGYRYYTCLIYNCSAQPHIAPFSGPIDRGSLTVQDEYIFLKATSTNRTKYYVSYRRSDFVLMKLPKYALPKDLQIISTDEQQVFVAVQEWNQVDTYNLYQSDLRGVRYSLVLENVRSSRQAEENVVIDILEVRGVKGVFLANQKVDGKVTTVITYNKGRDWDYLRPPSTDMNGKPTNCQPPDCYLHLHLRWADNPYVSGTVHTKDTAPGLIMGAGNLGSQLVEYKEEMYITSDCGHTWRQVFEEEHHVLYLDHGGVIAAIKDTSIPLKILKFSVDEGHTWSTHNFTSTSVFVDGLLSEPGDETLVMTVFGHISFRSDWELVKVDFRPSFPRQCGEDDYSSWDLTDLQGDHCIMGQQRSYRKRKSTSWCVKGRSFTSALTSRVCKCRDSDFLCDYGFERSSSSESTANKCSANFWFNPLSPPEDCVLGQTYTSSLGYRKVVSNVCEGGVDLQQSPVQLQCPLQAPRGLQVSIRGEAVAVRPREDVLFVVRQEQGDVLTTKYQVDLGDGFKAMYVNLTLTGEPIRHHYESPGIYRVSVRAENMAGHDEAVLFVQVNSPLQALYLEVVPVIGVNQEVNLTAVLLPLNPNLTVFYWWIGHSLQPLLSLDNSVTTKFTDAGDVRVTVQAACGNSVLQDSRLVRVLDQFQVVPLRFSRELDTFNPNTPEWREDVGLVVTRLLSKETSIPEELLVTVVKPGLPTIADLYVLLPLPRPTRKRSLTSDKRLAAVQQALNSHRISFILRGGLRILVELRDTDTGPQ
With B1, the Kd was about 30 µM.
